Results as given in US20250263462A1 (US Dept. of Health and Human Services, published 2025).

How the values were obtained:
Assay in all cases: cell-based or functional assay
[1] = biological target: KRAS G12D 10-mer peptide … (SEQ ID NO: 2) presented by HLA-A11 on pulsed cells (human, UniProt A*11:01)
[2] = biological target: WT KRAS 10-mer peptide (SEQ ID NO: 30) presented by HLA-A11 on pulsed cells (human, UniProt A*11:01)
[3] = biological target: KRAS G12V 10-mer peptide … (SEQ ID NO: 33) presented by HLA-A11 on pulsed cells (human, UniProt A*11:01)
[4] = biological target: HLA-A11 on COS7/A11 cells expressing the KRAS G12V minigene (23-mer SEQ ID NO: 120) (human, UniProt A*11:01)
[5] = biological target: HLA-A11 on COS7/A11 cells expressing the KRAS G12D minigene (23-mer SEQ ID NO: 119) (human, UniProt A*11:01)
[6] = biological target: HLA-A11 on COS7/A11 cells expressing the WT KRAS minigene (23-mer SEQ ID NO: 118) (human, UniProt A*11:01)

B1: TRAV3-3*01 + TRBV13-1*02 TCR chain pair (TCR, V domains shown)
V domain 1: GEQVEQRPPHLSVREGDSAVITCTYTDPNSYYFFWYKQEPGASLQLLMKVFSSTEINEGQGFTVLLNKKDKRLSLNLTAAHPGDSAAYFCAVSGGTNSAGNKLTFGIGTRVLVRP
V domain 2: EAAVTQSPRNKVTVTGGNVTLSCRQTNSHNYMYWYRQDTGHGLRLIHYSYGAGNLQIGDVPDGYKATRTTQEDFFLLLELASPSQTSLYFCASASWGGYAEQFFGPGTRLTVLE
- IFN-γ, PBL + pulsed Cos7/A11 [1]: 49 pg/mL
- IFN-γ, PBL + pulsed Cos7/A11 [2]: 47 pg/mL
- IFN-γ, PBL + pulsed Cos7/A11 [3]: 44 pg/mL
- IFN-γ, PBL + Cos7/A11 minigene transfectant [4]: 61 pg/mL
- IFN-γ, PBL + Cos7/A11 minigene transfectant [5]: 56 pg/mL
- IFN-γ, PBL + Cos7/A11 minigene transfectant [6]: 51 pg/mL
